Test results reported in IntAct's records for PubMed 18256029.

B1: Programmed cell death protein 6 (Homo sapiens), O75340 (parent)
chain: MAAYSYRPGPGAGPGPAAGAALPDQSFLWNVFQRVDKDRSGVISDTELQQALSNGTWTPFNPVTVRSIISMFDRENKAGVNFSEFTGVWKYITDWQNVFRTYDRDNSGMIDKNELKQALSGFGYRLSDQFHDILIRKFDRQGRGQIAFDDFIQGCIVLQRLTDIFRRYDTDQDGWIQVSYEQYLSMVFSIV
B2: Programmed cell death protein 6 (Homo sapiens), O75340 (parent)
chain: B1 chain
partner: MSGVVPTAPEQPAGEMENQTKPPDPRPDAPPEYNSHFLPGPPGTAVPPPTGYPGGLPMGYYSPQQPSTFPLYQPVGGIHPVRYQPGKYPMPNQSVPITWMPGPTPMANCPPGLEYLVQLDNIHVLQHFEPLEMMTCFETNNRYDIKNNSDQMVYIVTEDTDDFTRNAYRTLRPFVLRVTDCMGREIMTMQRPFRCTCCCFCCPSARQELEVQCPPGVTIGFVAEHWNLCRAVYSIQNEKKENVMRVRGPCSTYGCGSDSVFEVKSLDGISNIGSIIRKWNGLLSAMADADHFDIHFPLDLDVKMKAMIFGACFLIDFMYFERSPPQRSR
B3: Programmed cell death protein 6 (Homo sapiens), O75340 (parent)
chain: B1 chain
partner: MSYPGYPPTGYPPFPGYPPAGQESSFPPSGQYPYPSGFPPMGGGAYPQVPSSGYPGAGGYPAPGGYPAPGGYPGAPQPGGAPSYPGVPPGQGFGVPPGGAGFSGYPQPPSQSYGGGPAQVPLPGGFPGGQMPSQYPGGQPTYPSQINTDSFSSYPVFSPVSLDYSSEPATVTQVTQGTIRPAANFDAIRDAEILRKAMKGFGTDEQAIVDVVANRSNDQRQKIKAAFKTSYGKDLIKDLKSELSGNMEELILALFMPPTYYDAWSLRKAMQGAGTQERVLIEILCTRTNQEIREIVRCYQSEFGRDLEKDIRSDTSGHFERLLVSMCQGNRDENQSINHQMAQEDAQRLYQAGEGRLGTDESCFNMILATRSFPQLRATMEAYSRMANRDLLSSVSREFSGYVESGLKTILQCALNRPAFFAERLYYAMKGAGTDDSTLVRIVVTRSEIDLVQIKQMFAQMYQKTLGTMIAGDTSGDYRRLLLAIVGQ
B4: Programmed cell death protein 6 (Homo sapiens), O75340 (parent)
chain: B1 chain
partner: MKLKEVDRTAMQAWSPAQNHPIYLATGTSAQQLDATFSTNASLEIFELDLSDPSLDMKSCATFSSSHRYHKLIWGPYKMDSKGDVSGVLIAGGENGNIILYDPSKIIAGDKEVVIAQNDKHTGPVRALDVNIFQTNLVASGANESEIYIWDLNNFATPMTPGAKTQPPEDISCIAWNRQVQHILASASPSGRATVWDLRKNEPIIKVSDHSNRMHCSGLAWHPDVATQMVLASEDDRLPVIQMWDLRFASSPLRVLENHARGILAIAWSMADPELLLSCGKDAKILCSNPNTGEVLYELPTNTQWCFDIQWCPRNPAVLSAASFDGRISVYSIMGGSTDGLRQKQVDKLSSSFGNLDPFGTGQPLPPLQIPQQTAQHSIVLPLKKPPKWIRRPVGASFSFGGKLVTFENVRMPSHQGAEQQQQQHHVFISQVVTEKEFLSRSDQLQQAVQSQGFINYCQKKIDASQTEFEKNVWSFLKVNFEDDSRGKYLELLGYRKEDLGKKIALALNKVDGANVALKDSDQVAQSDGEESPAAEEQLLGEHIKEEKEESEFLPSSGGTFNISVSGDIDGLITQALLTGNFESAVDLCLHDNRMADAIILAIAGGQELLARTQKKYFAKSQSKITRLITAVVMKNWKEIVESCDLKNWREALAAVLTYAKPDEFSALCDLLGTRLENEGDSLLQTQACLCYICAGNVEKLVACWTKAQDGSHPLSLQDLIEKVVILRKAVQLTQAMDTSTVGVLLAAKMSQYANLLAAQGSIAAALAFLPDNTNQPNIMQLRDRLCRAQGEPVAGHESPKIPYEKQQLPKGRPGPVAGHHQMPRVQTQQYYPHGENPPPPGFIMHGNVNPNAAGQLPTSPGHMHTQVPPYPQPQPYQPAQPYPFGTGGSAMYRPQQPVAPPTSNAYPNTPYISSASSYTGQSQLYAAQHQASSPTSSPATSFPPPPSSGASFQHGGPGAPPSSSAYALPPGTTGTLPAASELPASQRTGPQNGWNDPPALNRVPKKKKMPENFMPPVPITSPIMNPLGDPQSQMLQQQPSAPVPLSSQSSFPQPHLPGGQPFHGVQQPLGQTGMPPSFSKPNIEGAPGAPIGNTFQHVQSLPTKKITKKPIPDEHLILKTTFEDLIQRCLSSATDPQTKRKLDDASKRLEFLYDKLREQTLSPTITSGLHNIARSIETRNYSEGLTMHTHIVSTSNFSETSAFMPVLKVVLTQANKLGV

Variants of: B1
Settings: with pls3_human PLSCR3, Q9NRY6
Chain of pls3_human PLSCR3, Q9NRY6 (Q9NRY6 whole entry): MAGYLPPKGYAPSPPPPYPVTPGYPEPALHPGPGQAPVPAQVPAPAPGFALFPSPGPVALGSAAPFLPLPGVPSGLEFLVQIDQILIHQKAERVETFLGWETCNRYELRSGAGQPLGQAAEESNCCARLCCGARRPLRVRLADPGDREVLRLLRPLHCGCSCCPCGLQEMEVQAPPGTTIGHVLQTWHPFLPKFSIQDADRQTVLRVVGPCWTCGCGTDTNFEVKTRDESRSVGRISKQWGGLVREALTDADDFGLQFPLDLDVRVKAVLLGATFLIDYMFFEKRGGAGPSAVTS

Row | Variant | effect of a mutation on the interaction
1 | E47A;E114A | decreasing interaction

Variants of: B1
Settings: with pls3_human PLSCR3, Q9NRY6
Remark: another data set of the same source

Row | Variant | effect of a mutation on the interaction
2 | W57A | decreasing interaction
3 | F60A | disrupting interaction
4 | Y91A | disrupting interaction
5 | W95A | disrupting interaction
6 | Y180A | disrupting interaction

Variants of: B1
Settings: with pdc6i_human PDCD6IP

Row | Variant | effect of a mutation on the interaction
7 | W57A | decreasing interaction
8 | F60A | disrupting interaction
9 | Y91A | disrupting interaction
10 | W95A | disrupting interaction
11 | Y180A | disrupting interaction

Variants of: B1
Settings: with anx11_human ANXA11, P50995
Chain of anx11_human ANXA11, P50995 (P50995 whole entry): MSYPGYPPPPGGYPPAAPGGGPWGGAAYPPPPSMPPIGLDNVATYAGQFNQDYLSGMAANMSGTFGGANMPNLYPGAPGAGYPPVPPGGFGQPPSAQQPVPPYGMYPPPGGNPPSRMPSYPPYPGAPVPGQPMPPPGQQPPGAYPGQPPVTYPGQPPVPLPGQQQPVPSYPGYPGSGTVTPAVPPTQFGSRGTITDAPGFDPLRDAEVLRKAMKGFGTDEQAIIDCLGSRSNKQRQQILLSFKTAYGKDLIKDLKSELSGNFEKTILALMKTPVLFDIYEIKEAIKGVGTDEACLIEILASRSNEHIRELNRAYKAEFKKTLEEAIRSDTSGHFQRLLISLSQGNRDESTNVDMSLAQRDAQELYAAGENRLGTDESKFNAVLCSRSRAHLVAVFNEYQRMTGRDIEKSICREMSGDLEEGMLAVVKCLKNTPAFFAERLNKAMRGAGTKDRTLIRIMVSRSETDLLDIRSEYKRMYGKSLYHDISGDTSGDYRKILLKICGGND

Row | Variant | effect of a mutation on the interaction
12 | W57A | decreasing interaction
13 | F60A | disrupting interaction
14 | Y91A | disrupting interaction
15 | W95A | disrupting interaction
16 | Y180A | disrupting interaction

Variants of: B1
Settings: with ts101_human TSG101, Q99816
Chain of ts101_human TSG101, Q99816 (Q99816 whole entry): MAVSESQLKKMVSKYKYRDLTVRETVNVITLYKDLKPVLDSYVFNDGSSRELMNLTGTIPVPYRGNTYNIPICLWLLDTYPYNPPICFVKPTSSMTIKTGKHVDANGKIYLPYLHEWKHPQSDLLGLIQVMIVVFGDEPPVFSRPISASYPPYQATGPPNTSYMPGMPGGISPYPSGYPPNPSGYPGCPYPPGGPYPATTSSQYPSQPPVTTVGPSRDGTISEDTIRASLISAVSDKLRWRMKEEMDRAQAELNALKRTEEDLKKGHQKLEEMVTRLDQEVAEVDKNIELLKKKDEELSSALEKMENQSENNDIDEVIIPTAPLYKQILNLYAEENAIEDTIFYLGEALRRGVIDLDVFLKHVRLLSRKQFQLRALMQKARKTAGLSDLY

Row | Variant | effect of a mutation on the interaction
17 | W95A | disrupting interaction
18 | Y180A | disrupting interaction

Variants of: B2
Settings: with pls4_human PLSCR4, Q9NRQ2

Row | Variant | effect of a mutation on the interaction
19 | E47A;E114A | decreasing interaction

Variants of: B3
Settings: with anxa7_human ANXA7, P20073

Row | Variant | effect of a mutation on the interaction
20 | W57A | decreasing interaction
21 | Y180A | disrupting interaction
22 | F60A | disrupting interaction
23 | W95A | disrupting interaction
24 | Y91A | disrupting interaction

Variants of: B4
Settings: with sc31a_human SEC31A

Row | Variant | effect of a mutation on the interaction
25 | F60A | disrupting interaction
